{
  "source": "paper PMC1849897",
  "about": "(Nucleic Acids Research, 2007)",
  "target": "the molecule itself",
  "assay": "SEC",
  "data": [
    {"protein": "Py-DmBLM (Drosophila Bloom's syndrome helicase homolog with an N-terminal polyoma epitope tag) (enzyme) not shown", "values": [
      {"measurement": "stoichiometry N", "result": "~7"}
    ]}
  ]
}
